Target: T1, Norwalk virus (NV) virus-like particle (Norwalk virus (genotype GI.1), UniProt Q83884 1-530; Q83885 1-212)
T1 construct: also called NV-VLP; NV-VLPs
T1 sequence 1: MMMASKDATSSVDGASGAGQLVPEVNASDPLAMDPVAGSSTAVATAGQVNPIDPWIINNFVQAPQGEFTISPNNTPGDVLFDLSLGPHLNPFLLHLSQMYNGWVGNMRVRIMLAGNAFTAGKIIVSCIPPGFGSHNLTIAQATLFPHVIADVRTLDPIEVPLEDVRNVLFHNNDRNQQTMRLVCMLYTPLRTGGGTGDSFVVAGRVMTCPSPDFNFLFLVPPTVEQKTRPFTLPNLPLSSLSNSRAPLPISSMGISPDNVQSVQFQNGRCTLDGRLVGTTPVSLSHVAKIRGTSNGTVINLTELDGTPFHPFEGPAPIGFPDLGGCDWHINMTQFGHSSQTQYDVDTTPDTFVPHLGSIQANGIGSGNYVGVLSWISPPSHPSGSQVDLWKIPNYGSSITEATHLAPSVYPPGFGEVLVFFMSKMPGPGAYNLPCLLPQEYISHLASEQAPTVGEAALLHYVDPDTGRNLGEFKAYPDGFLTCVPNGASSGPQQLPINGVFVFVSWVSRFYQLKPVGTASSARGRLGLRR
T1 sequence 2: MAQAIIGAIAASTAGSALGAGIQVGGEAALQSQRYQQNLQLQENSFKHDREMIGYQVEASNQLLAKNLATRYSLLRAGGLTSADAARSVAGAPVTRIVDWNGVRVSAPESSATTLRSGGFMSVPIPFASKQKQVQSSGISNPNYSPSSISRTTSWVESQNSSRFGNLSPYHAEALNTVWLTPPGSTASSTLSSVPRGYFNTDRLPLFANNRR
Assay: capture ELISA: NV-VLP captured by immobilized polyclonal antibody, M13 phage antibody detection

B1: non-peptide displaying M13 phage (other)
chain: AETVESCLAKPHTENSFTNVWKDDKTLDRYANYEGCLWNATGVVVCTGDETQCYGTWVPIGLAIPENEGGGSEGGGSEGGGSEGGGTKPPEYGDTPIPGYTYINPLDGTYPPGTEQNPANPNPSLEESQPLNTFMFQNNRFRNRQGALTVYTGTVTQGTDPVKTYYQYTPVSSKAMYDAYWNGKFRDCAFHSGFNEDPFVCEYQGQSSDLPQPPVNAGGGSGGGSGGGSEGGGSEGGGSEGGGSEGGGSGGGSGSGDFDYEKMANANKGAMTENADENALQSDAKGKLDSVATDYGAAIDGFIGDVSGLANGNGATGDFAGSNSQMAQVGDGDNSPLMNNFRQYLPSLPQSVECRPFVFSAGKPYEFSIDCDKINLFRGVFAFLLYVATFMYVFSTFANILRNKES
notes: Whole phage particle used as negative control; also called M13 control phage
Question: Does B1 bind?
Answer: Result: no binding
